Laboratory results published in patent US10966923.

Key:
VEGF = VEGF (UniProt P15692); assay: VEGF incubated with particles, particulate spun out, free VEGF in the supernatant measured by ELISA
[1] = target: AB160 (nanoparticle of albumin-bound paclitaxel and bevacizumab, ratio about 10:4, average particle size 160 nm) (UniProt P02768); assay: flow cytometry of particles stained with goat anti-mouse IgG and PE
[2] = target: Abraxane (albumin-bound paclitaxel) (UniProt P02768); assay: flow cytometry of particles stained with goat anti-mouse IgG and PE; ABX alone as comparison
[3] = target: T1, Abraxane (albumin-bound paclitaxel) (UniProt P02768 25-609); assay: VEGF incubated with particles, particulate spun out, free VEGF in the supernatant measured by ELISA
T1 construct: also called ABX; Paclitaxel Albumin-stabilized Nanoparticle Formulation
Procedure: The VEGF was incubated with the nanoparticles for 2 hours at room temperature. The suspension was spun at 6000 rpm for 15 minutes, supernatants were collected and free VEGF was measured by ELISA. Briefly, ELISA plates were coated with capture antibody overnight at 4° C. Plates were washed, blocked and standards and samples were added. After washing, detection antibody was added and plates were developed with substrate (R and D Systems, Minneapolis, Minn.). […] The concentration of unbound VEGF was determined with a standard curve from 0 to 2000 pg/ml.

AB160 (nanoparticle of albumin-bound paclitaxel and bevacizumab, ratio about 10:4, average particle size 160 nm) (from UniProt P02768 25-609)
% VEGF unbound (VEGF): < 10%

goat anti-mouse IgG (antibody)
% positive [1]: 41.2% | % positive [2]: 6.7%

B1: VEGF (ligand, UniProt P15692-4 27-191, looked up)
chain: APMAEGGGQNHHEVVKFMDVYQRSYCHPIETLVDIFQEYPDEIEYIFKPSCVPLMRCGGCCNDEGLECVPTEESNITMQIMRIKPHQGQHIGEMSFLQHNKCECRPKKDRARQENPCGPCSERRKHLFVQDPQTCKCSCKNTDSRCKARQLELNERTCRCDKPRR
notes: Soluble VEGF
binding result [3]: no binding (tested: 2000 pg/ml VEGF)
